Reference: PMC12313861

Target: ComFB signaling protein (Slr1970) (Synechocystis)
Test: SEC-MALS; size exclusion chromatography coupled to multiangle light scattering of ComFB; species of 40.5 kDa against theoretical monomer mass 20.4 kDa

ComFB signaling protein (Slr1970) (natural protein)
stoichiometry N: 2
